Experimental data: article PMC10450692

Legend:
Assay in all cases: native MS; native nanoESI ion mobility MS (Synapt G2-S), 20 μM peptide in 200 mM ammonium acetate pH 6.8, positive ion mode, 25 °C source temperature; self-association of SEC-purified monomer
[1] = target: Aβ(1–16)
[2] = target: Aβ(1–28)
[3] = target: Aβ(1–38)
[4] = target: Aβ(1–40)CC (A21C and A30C double mutant with an intramolecular disulfide bond)
[5] = target: amyloid-β peptide Aβ(1–40)
[6] = target: scrambled Aβ(1–40)

Aβ(1–16) (peptide) was tested. Which stoichiometry N [1] did it give?
Its stoichiometry N is 2.

How did the stoichiometry N [2] turn out when Aβ(1–28) (peptide) was run?
Its stoichiometry N is 6.

Which stoichiometry N [3] does the source give for Aβ(1–38) (peptide) here?
The stoichiometry N was greater than 6.

For “Aβ(1–40)CC (A21C and A30C double mutant with an intramolecular disulfide bond) (peptide)”, which stoichiometry N [4] is on record?
Its stoichiometry N is greater than 10.

How did the stoichiometry N [5] turn out when amyloid-β peptide Aβ(1–40) was run?
The stoichiometry N was greater than 8.

For scrambled Aβ(1–40) (peptide), which stoichiometry N [6] is on record?
Its stoichiometry N is 2.
